Residue numbers refer to the chain shown, from its start.
B1: Construct No. 3 (SEQ ID NO: 13), 2D (CD16a × HER2), DARPin #2 with C-terminal HER2 binder of SEQ ID NO: 9 (designed binder)
chain: MRGSHHHHHHGSDLGQKLLRAAKKGQDDEVRELLKAGADVNAKDEQGWTPLHIAAWKGHLEIVEVLLKAGADVNAKDVFDWTPLHVAAHFGHLEIVEVLLKAGADVNAQDRAGETPADLAAQAGHEDIAEVLQKAAGSPTPTPTTPTPTPTTPTPTPTGSDLGIKLLFAAAKGQDDEVRELLKAGADVNAKDFQGVTPLHIAAQSGHLEIVEVLLKAGADVNAKDVTGDTPLHLAAQHGHLEIVEVLLKAGADVNAQDERGWTPADLAADWGHEDIAEVLQKAA
notes: Bispecific DARPin; also called Construct 3
B2: Construct No. 7 (SEQ ID NO: 10), 2D (HER2 × CD16a), DARPin #2 with N-terminal HER2 binder of SEQ ID NO: 8 (designed binder)
chain: MRGSHHHHHHGSDLGKKLLEAARAGQDDEVRELLKAGADVNAKDEYGLTPLYLATAHGHLEIVEVLLKAGADVNAVDAIGFTPLHLAAFIGHLEIAEVLLKAGADVNAQDKFGKTPADIAAGAGNEDIAEVLQKAAGSPTPTPTTPTPTPTTPTPTPTGSDLGQKLLRAAKKGQDDEVRELLKAGADVNAKDEQGWTPLHIAAWKGHLEIVEVLLKAGADVNAKDVFDWTPLHVAAHFGHLEIVEVLLKAGADVNAQDRAGETPADLAAQAGHEDIAEVLQKAA
notes: Bispecific DARPin; also called Construct 7
B3: Construct No. 4 (SEQ ID NO: 15), 2D (HER2 × CD16a), DARPin #3 with N-terminal HER2 binder of SEQ ID NO: 9 (designed binder)
chain: MRGSHHHHHHGSDLGIKLLFAAAKGQDDEVRELLKAGADVNAKDFQGVTPLHIAAQSGHLEIVEVLLKAGADVNAKDVTGDTPLHLAAQHGHLEIVEVLLKAGADVNAQDERGWTPADLAADWGHEDIAEVLQKAAGSPTPTPTTPTPTPTTPTPTPTGSDLGKKLLQAARAGQLDEVRELLKAGADVNAKDEQGRTPLHIAAASGHLEIVEVLLKAGADVNAKDWFGITPLHIAAWWGHLEIVEVLLKAGADVNAKDQEGRTPLHIAAAIGHLEIVEVLLKAGADVNAQDKSGKTPADLAARAGHQDIAEVLQKAA
notes: Bispecific DARPin; also called Construct 4
B4: Construct No. 16 (SEQ ID NO: 19), 2D (HER2 × CD16a), DARPin #4 with N-terminal HER2 binder of SEQ ID NO: 9 (designed binder)
chain: MRGSHHHHHHDYKDDDDKPTPTPTGSDLGIKLLFAAAKGQDDEVRELLKAGADVNAKDFQGVTPLHIAAQSGHLEIVEVLLKAGADVNAKDVTGDTPLHLAAQHGHLEIVEVLLKAGADVNAQDERGWTPADLAADWGHEDIAEVLQKAAGSPTPTPTTPTPTPTTPTPTPTGSDLGEKLLLAAALGQDDEVRELLKAGADVNAKDVQGSTPLHLAAVEGHLEIVEVLLKAGADVNAKDQWGQTPLHVAAIWGHLEIVEVLLKAGADVNAQDELGKTPADLVALQGHEDIAEVLQKAA
notes: Bispecific DARPin; also called Construct 16
B5: Construct No. 17 (SEQ ID NO: 20), 2D (HER2 × CD16a), DARPin #5 with N-terminal HER2 binder of SEQ ID NO: 9 (designed binder)
chain: MRGSHHHHHHDYKDDDDKPTPTPTGSDLGIKLLFAAAKGQDDEVRELLKAGADVNAKDFQGVTPLHIAAQSGHLEIVEVLLKAGADVNAKDVTGDTPLHLAAQHGHLEIVEVLLKAGADVNAQDERGWTPADLAADWGHEDIAEVLQKAAGSPTPTPTTPTPTPTTPTPTPTGSDLGAKLLRAAKKGQDDEVRELLKAGADVNAKDELGFTPLHVAAEEGHLEIVEVLLKAGADVNAKDSWGATPLHVAAWVGHLEIVEVLLKAGADVNAQDQEGQTPADLAAEAGHEDIAEVLQKAA
notes: Bispecific DARPin; also called Construct 17
B6: Construct No. 18 (SEQ ID NO: 21), 2D (HER2 × CD16a), DARPin #6 with N-terminal HER2 binder of SEQ ID NO: 9 (designed binder)
chain: MRGSHHHHHHDYKDDDDKPTPTPTGSDLGIKLLFAAAKGQDDEVRELLKAGADVNAKDFQGVTPLHIAAQSGHLEIVEVLLKAGADVNAKDVTGDTPLHLAAQHGHLEIVEVLLKAGADVNAQDERGWTPADLAADWGHEDIAEVLQKAAGSPTPTPTTPTPTPTTPTPTPTGSDLGKKLLEAAEEGQDDEVRELLKAGADVNAKDEWGSTPLHIAAWVGHLEIVEVLLKAGADVNAKDSLGATPLHLAAEAGHLEIVEVLLKAGADVNAQDLKGKTPADLAALEGHEDIAEVLQKAA
notes: Bispecific DARPin; also called Construct 18
B7: Construct No. 1 (1D CD16a; DARPin #2 of SEQ ID NO: 2 with N-terminal His tag) (designed binder)
chain: MRGSHHHHHHGSDLGQKLLRAAKKGQDDEVRELLKAGADVNAKDEQGWTPLHIAAWKGHLEIVEVLLKAGADVNAKDVFDWTPLHVAAHFGHLEIVEVLLKAGADVNAQDRAGETPADLAAQAGHEDIAEVLQKAA
notes: also called Construct 1
B8: DARPin #7 (SEQ ID NO: 7) with N-terminal His tag (designed binder)
chain: B7 chain with I53N
B9: Construct No. 2 (1D CD16a; DARPin #3 of SEQ ID NO: 3 with N-terminal His tag) (designed binder)
chain: MRGSHHHHHHGSDLGKKLLQAARAGQLDEVRELLKAGADVNAKDEQGRTPLHIAAASGHLEIVEVLLKAGADVNAKDWFGITPLHIAAWWGHLEIVEVLLKAGADVNAKDQEGRTPLHIAAAIGHLEIVEVLLKAGADVNAQDKSGKTPADLAARAGHQDIAEVLQKAA
notes: also called Construct 2

Legend:
[1] = target: T1, full length human CD16b stably expressed on transduced WT Jurkat cells (human, UniProt O75015 17-200); experiment: flow cytometry on Jurkat-CD16b cells, 5-fold serial dilutions, detection with Penta-His Alexa Fluor 488
T1 construct: whole, on cells; also called CD16b expressing cells; Jurkat CD16b
Description: (§1) Serial dilutions (5-fold) of the constructs were incubated 30 min at 4° C. with 50000 cells in a 96-well plate. […] Cold buffer was added, then cells were spun down prior to supernatant removal. Cells were then fixed with Cell fix buffer (BD) and signal was measured by flow cytometry.

[2] = target: T2, CD16aV allotype of human CD16a expressed on Jurkat-Lucia-NFAT-CD16 Reporter cells (InvivoGen) (human, UniProt P08637 17-254); experiment: cell-based or functional assay
[3] = target: T3, CD32a expressed on Jurkat-NFAT-CD32a reporter cells (Invivogen jktl-nfat-cd32) (UniProt P12318 34-317, limits assumed); experiment: flow cytometry on Jurkat-NFAT-CD32a cells, 4-fold serial dilutions, detection with anti-DARPin 1.1.1 antibody
T3 construct: whole, on cells; also called Jurkat-Lucia NFAT-CD32a Reporter cells; Fc receptor CD32a
T3 sequence (looked up): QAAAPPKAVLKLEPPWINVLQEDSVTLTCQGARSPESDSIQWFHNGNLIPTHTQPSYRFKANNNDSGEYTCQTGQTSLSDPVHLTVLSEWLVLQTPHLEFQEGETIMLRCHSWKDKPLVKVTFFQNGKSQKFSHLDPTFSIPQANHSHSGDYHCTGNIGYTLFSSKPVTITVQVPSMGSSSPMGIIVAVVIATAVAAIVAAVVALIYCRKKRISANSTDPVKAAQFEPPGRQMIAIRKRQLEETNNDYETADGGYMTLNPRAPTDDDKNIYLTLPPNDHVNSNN
Description: Serial dilutions (4-fold) of the constructs were incubated 30 min at 4° C. with 50000 cells in a 96-well plate. Detection antibody (anti-DARPin 1.1.1 Alexa Fluor […]) was subsequently added to the wells (2 μg/ml diluted in FACS buffer) and incubated at 4° C. for 30 min. Cold buffer was added, then cells were spun down prior to supernatant removal. Cells were then fixed with Cell fix buffer (BD) and signal was measured by flow cytometry.

[4] = target: T2, CD16aV allotype of human CD16a …; experiment: cell-based or functional assay; remark: listed apart in the source
[5] = target: T2, CD16aV allotype of human CD16a …; experiment: flow cytometry on Jurkat-CD16aV cells, serial dilutions, detection with Penta-His Alexa Fluor 647
[6] = target: T1, full length human CD16b stably …; experiment: flow cytometry on Jurkat-CD16b cells, serial dilutions, detection with Penta-His Alexa Fluor 647
[7] = target: T4, biotinylated human CD16aV target (bio-CD16aV of SEQ ID NO: 72) (human, UniProt P08637 17-208, biotinylated (Sulfo-NHS-LC-Biotin kit)); experiment: SPR (ProteOn XPR36), biotinylated target on neutravidin chip, DARPin injected at 100 nM and 1:3 dilutions, 1:1 Langmuir fit
T4 construct: also called recombinant CD16a target
Description: (§2) SPR measurements were performed using a ProteOn XPR36 instrument (BioRad). Each of biotinylated human target (bio-CD16aV of SEQ ID NO: 72) and biotinylated cyno target (bio-cCD16 of SEQ ID NO: 76) were immobilized on a neutravidin chip (NAHLC200M, Xantec ProteOn Sensor Chip) to a level of about 320 RU. The interactions of purified CD16a-specific ankyrin construct with bio-CD16aV or bio-cCD16 were measured by injecting the DARPins at 100 nM (and 1:3 dilutions) with an association of 180 s and dissociation of 600 s using a constant flow of 30 μl/min. The target was regenerated between the individual measurements using 31 mM H3PO4. The signals were double referenced against the running buffer (PBST) treated control lanes. The KD were calculated with a 1:1 Langmuir model fitting from the estimated on- and off-rates using standard procedures known to the person skilled in the art.

[8] = target: T5, biotinylated cynomolgus CD16 target (bio-cCD16 of SEQ ID NO: 76) (cynomolgus monkey, biotinylated); experiment: as above
T5 construct: also called Cyno CD16a
T5 chain: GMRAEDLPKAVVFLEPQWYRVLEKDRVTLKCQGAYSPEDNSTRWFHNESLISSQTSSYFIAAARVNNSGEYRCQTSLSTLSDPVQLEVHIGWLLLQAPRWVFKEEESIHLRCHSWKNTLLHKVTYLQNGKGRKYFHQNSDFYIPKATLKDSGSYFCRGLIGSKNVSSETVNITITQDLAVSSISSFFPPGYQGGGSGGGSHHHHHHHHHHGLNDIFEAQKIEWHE
Description: as §2

[9] = target: T4, biotinylated human CD16aV target …; experiment: SPR (ProteOn XPR36), bio-CD16aV immobilised on NLC chip, construct injected at 100 nM and 1:3 dilutions, PBST, 1:1 Langmuir fit
Description: SPR measurements were performed using a ProteOn XPR36 instrument (BioRad). […] The signals were double referenced against the running buffer (PBST) treated control lanes.

[10] = target: T2, CD16aV allotype of human CD16a …; experiment: flow cytometry on Jurkat-CD16aV cells, 5-fold serial dilutions, detection with Penta-His Alexa Fluor 488
Description: as §1

T2 sequence (P08637 17-254 F176V): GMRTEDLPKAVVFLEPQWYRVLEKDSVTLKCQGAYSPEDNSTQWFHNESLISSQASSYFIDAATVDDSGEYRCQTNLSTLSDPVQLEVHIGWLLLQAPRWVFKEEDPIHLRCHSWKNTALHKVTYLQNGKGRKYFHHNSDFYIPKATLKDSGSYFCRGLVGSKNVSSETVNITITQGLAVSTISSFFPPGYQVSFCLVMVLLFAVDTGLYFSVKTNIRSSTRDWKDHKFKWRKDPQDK
T4 sequence (P08637 other isoform, or with tags, fused parts or gaps): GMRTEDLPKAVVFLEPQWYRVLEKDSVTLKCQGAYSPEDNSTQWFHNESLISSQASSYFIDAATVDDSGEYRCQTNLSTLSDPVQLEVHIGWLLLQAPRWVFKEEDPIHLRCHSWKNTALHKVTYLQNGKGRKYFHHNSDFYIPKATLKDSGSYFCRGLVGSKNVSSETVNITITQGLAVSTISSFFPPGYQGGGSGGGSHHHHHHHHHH
T1 sequence (O75015 17-200): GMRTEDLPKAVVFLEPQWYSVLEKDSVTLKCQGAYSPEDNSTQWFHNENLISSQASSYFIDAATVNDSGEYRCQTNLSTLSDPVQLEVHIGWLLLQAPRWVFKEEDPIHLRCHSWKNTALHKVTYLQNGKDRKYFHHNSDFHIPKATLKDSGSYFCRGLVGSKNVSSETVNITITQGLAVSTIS

Binder	binding result [1]	EC50 (pM), ADCC reporter assay (luminescence), SKOV3 target cells, E:T 5:1, 5 h [2] [pM]	binding result [5]	binding result [6]	also measured
B1	no binding (tested: 1000 nM)	0.19			binding result [3]: no binding (tested: 400 nM)
B2		0.37			EC50 ADCC reporter assay (CD16a) (pM), SKOV3 target cells, E:T 1:1, 24 h [4]: 4 pM; binding result [3]: no binding (tested: 400 nM)
B3	no binding (tested: 1000 nM)	0.7			
B4			binds	no binding (tested: 1000 nM)	
B5			binds	no binding (tested: 1000 nM)	
B6			binds	no binding (tested: 1000 nM)	
B7	no binding (tested: 1000 nM)				Kd [7]: 5.94 nM; Kd [8]: 3.41 nM; Kd [9]: 3.3 nM; binding result [10]: binds
B8					Kd [7]: 1.98 nM; Kd [8]: 0.904 nM
B9	no binding (tested: 1000 nM)				EC50 (read off the curve) [10]: ~20 nM
